Bridges are numbered along the chain shown (N, C = ends). [ ]: non-standard residue; d: D form. The star is where a group is joined. Pentanoyl(5-guanidino) = NC(N)=NCCCCC(=O)*; hArg = N=C(N)NCCCC[C@H](N)C(=O)O; Nle = CCCC[C@H](N)C(=O)O; GABA = NCCCC(=O)O; βAla = NCCC(=O)O
How the values were obtained:
[1] = molecular target: T1, human melanin concentrating hormone type 2 receptor (MCH-2R) (human, UniProt Q969V1 1-340); test: cell-based or functional assay
human MCH-1R [2] = molecular target: T2, human MCH-1R (human, UniProt Q99705 1-353); test: cell-based or functional assay
[3] = molecular target: T1, human melanin concentrating hormone …; test: SPA competition with [125I]-human MCH (Phe13, Tyr19) on receptor membranes
Protocol: (§1) For the SPA-based assay, WGA-PVT beads (NEN Life Sciences Products) were resuspended in Dulbecco's PBS with calcium and magnesium (500 mg beads in 4 ml PBS). […] The suspension was mixed gently for 20 minutes, 12.3 ml of assay buffer and protease inhibitors were added (final concentration given): 2 μg/ml leupeptin, 10 μM phosphoramidon, 40 μg/ml bacitracin, 5 μg/ml aprotinin, 0.1 mM Pefabloc.
(§2) Coated beads were kept on ice until use. […] Binding reactions were allowed to proceed at room temperature for 3 hours. Quantitation was performed by scintillation counting (TopCount device).

human MCH-1R [4] = molecular target: T2, human MCH-1R; test: as above
Protocol: as §1, §2

T1 sequence (Q969V1 whole entry, form in doubt): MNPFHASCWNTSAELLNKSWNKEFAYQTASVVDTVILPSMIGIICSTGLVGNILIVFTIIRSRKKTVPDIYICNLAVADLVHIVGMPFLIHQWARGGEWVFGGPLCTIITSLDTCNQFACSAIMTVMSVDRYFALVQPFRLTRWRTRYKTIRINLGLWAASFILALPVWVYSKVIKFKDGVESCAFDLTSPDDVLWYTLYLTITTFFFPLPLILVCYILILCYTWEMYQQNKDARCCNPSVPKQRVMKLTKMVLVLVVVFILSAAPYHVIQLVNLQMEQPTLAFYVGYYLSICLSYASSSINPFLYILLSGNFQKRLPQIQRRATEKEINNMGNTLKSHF
T2 sequence (Q99705 whole entry, form in doubt): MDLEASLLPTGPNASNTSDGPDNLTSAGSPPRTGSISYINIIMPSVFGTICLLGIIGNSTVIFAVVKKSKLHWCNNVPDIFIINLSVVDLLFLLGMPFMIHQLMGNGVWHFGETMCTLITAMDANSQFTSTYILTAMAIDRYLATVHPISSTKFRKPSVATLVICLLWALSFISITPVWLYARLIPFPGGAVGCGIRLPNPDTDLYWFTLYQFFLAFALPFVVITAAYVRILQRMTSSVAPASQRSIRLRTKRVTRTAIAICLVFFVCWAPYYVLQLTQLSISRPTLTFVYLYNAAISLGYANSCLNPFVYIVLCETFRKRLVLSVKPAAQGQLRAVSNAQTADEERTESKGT

Row | Binder | Activation % at 10 µM (aequorin functional assay) [1] [%] | EC50 (aequorin functional assay) [1] [nM] | Activation % at 10 µM (aequorin functional assay) (human MCH-1R [2]) [%] | EC50 (aequorin functional assay) (human MCH-1R [2]) [nM] | IC50 [3] [nM] | IC50 (human MCH-1R [4]) [nM] | % @ concentration (human MCH-1R [4]) | % @ concentration [3] [% @ 10 µM]
1 | Ac-RCML[βAla]RVYRPC-NH2 (disulfide 2-11 (inferred)) [SEQ. ID. NO. 20] | 92 | – | 3.2 | > 1000 | – | – | – | –
2 | RCMLXRVYRPC (Sar^10 (sarcosine)) [SEQ. ID. NO. 6] | 94 | 40 | 95 | – | – | – | – | –
3 | RCALXRVYRPC (not fully specified; D-Ala^10, also called Ala^8, D-Ala^10) [SEQ. ID. NO. 35] | 120 | 140 | – | > 10000 | – | – | 70 % @ 1 µM | –
4 | RCMLGRVXRPC (Cha^13 (2-cyclohexyl-alanine), also called Cha^13) [SEQ. ID. NO. 31] | 76 | – | 93 | – | 9 | – | – | –
5 | RCMLXRVYRPC (D-Nle^10, also called D-Nle^10) [SEQ. ID. NO. 15] | 78 | – | 33 | – | 2.3 | – | – | –
6 | Ac-RCALGRVYRPC-NH2 (disulfide 2-11; SMILES CC(=O)N[C@@H](CCCNC(=N)N)C(=O)N[C@H]1CSSC[C@@H](C(N)=O)NC(=O)[C@@H]2CCCN2C(=O)[C@H](CCCNC(=N)N)NC(=O)[C@H](Cc2ccc(O)cc2)NC(=O)[C@H](C(C)C)NC(=O)[C@H](CCCNC(=N)N)NC(=O)CNC(=O)[C@H](CC(C)C)NC(=O)[C@H](C)NC1=O, also called Ala^8) [SEQ. ID. NO. 4] | 104 | 12 | 42 | 4100 | 18 | 15 | – | –
7 | Ac-RCMLSRVYRPC-NH2 (disulfide 2-11; SMILES CSCC[C@@H]1NC(=O)[C@@H](NC(=O)[C@H](CCCNC(=N)N)NC(C)=O)CSSC[C@@H](C(N)=O)NC(=O)[C@@H]2CCCN2C(=O)[C@H](CCCNC(=N)N)NC(=O)[C@H](Cc2ccc(O)cc2)NC(=O)[C@H](C(C)C)NC(=O)[C@H](CCCNC(=N)N)NC(=O)[C@H](CO)NC(=O)[C@H](CC(C)C)NC1=O, also called Ser^10) [SEQ. ID. NO. 10] | 95 | 44 | 104 | 65 | 52 | 0.32 | – | –
8 | Ac-RCMLARVYRPC-NH2 (disulfide 2-11; SMILES CSCC[C@@H]1NC(=O)[C@@H](NC(=O)[C@H](CCCNC(=N)N)NC(C)=O)CSSC[C@@H](C(N)=O)NC(=O)[C@@H]2CCCN2C(=O)[C@H](CCCNC(=N)N)NC(=O)[C@H](Cc2ccc(O)cc2)NC(=O)[C@H](C(C)C)NC(=O)[C@H](CCCNC(=N)N)NC(=O)[C@H](C)NC(=O)[C@H](CC(C)C)NC1=O, also called Ala^10) [SEQ. ID. NO. 7] | 97 | 7.7 | 104 | 31 | 4.6 | 0.59 | – | –
9 | Ac-RCMLGAVYRPC-NH2 (disulfide 2-11; SMILES CSCC[C@@H]1NC(=O)[C@@H](NC(=O)[C@H](CCCNC(=N)N)NC(C)=O)CSSC[C@@H](C(N)=O)NC(=O)[C@@H]2CCCN2C(=O)[C@H](CCCNC(=N)N)NC(=O)[C@H](Cc2ccc(O)cc2)NC(=O)[C@H](C(C)C)NC(=O)[C@H](C)NC(=O)CNC(=O)[C@H](CC(C)C)NC1=O, also called Ala^11) [SEQ. ID. NO. 23] | 36 | > 1000 | – | > 10000 | 9.7 | – | – | –
10 | RCMLGRVYRPX (D-Cys^16, also called D-Cys^16) [SEQ. ID. NO. 33] | 90 | – | 76 | – | 2.3 | – | – | –
11 | Ac-RCML[GABA]RVYRPC-NH2 (disulfide 2-11 (inferred), also called εAbu^10) [SEQ. ID. NO. 21] | 112 | – | 101 | – | – | 2.1 | – | –
12 | RCMLGXVYRPC (N-Me-Arg^11) [SEQ. ID. NO. 22] | 86 | – | 110 | – | – | – | – | –
13 | RCMLGRVYRXC (Sar^15 (sarcosine)) [SEQ. ID. NO. 32] | 91 | 12 | 113 | – | – | – | – | –
14 | Ac-CMLGRVYRPC-NH2 (disulfide 1-10; not fully specified, positions numbered as in hMCH; also called ?Arg^6) [SEQ. ID. NO. 3] | – | 1500 | 6.5 | 300 | – | 1.6 | – | 38.5
15 | Ac-RCML[dA][hArg]VYRPC-NH2 (disulfide 2-11 (inferred), also called D-Ala^10, Harg^11) [SEQ. ID. NO. 36] | 74 | 19 | 0.1 | > 10000 | 0.9 | 56 | – | –
16 | RCXLGRVYRPC (Nle^8 (norleucine), also called Nle^8) [SEQ. ID. NO. 5] | 105 | 12 | 105 | – | – | 0.5 | – | –
17 | RCMLGRVXRPC (Phe(pF)^13, also called Phe(pF)^13) [SEQ. ID. NO. 29] | 100 | – | 98 | – | – | 0.6 | – | –

Now from value to binder:

Row | Activation % at 10 µM (aequorin functional assay) [1] [%] | EC50 (aequorin functional assay) [1] [nM] | Activation % at 10 µM (aequorin functional assay) (human MCH-1R [2]) [%] | EC50 (aequorin functional assay) (human MCH-1R [2]) [nM] | IC50 [3] [nM] | IC50 (human MCH-1R [4]) [nM] | % @ concentration (human MCH-1R [4]) | % @ concentration [3] [% @ 10 µM] | Binder
18 | 70 | 24 | 88 | – | – | – | – | – | RCMLGRVXRPC (Phe(pNH2)^13) [SEQ. ID. NO. 30]
19 | 83 | – | 23 | – | – | – | – | – | RCMLXRVYRPC (D-Leu^10) [SEQ. ID. NO. 14]
20 | 110 | 31 | 4 | 2000 | 250 | 30 | – | – | [Pentanoyl(5-guanidino)]CML[dA]RVYRPC-NH2 (disulfide 2-11 (inferred); not fully specified, also called (?-NH2)-Arg^6, D-Ala^10) [SEQ. ID. NO. 34]
21 | 94 | 12 | 96 | 46 | 1.5 | 1 | – | – | Ac-RCMLGRVFRPC-NH2 (disulfide 2-11; SMILES CSCC[C@@H]1NC(=O)[C@@H](NC(=O)[C@H](CCCNC(=N)N)NC(C)=O)CSSC[C@@H](C(N)=O)NC(=O)[C@@H]2CCCN2C(=O)[C@H](CCCNC(=N)N)NC(=O)[C@H](Cc2ccccc2)NC(=O)[C@H](C(C)C)NC(=O)[C@H](CCCNC(=N)N)NC(=O)CNC(=O)[C@H](CC(C)C)NC1=O, also called Phe^13) [SEQ. ID. NO. 27]
22 | 80 | 54 | 106 | 23 | 20 | 0.06 | – | – | RCMLLRVYRPC (also called Leu^10) [SEQ. ID. NO. 8]
23 | 34 | 58 | – | > 1000 | 9 | 301 | – | – | Ac-RCMLG[Nle]VYRPC-NH2 (disulfide 2-11 (inferred), also called Nle^11) [SEQ. ID. NO. 26]
24 | 90 | 19 | 105 | – | – | – | – | – | RCMLGRVXRPC ((2)Nal^13 ((2')naphthylalanine)) [SEQ. ID. NO. 28]
25 | 103 | 16 | 106 | 15 | – | – | – | – | RCMLXRVYRPC (Nle^10 (norleucine)) [SEQ. ID. NO. 9]
26 | 49 | 730 | 20 | > 10000 | – | – | 83 % @ 10 µM | – | RCALXXVYRPC (D-Ala^10, Harg^11 (homoarginine), also called Ala^8, D-Ala^10, Harg^11) [SEQ. ID. NO. 38]

— patent US20040147432A1 (MERCK, published 2004)
